The target in experiment [1] is GAS41 YEATS domain (residues 13–158), His6-tagged, 15N-labeled (human) (UniProt O95619). Put plainly: NMR titration.
For experiment [2], the target named is full-length GAS41, Avi-tagged, mono-biotinylated (human) (UniProt O95619). Briefly: BLI. (BLI is a label-free optical method that tracks binding on a fibre tip over time.)
For experiment [3], the target named is GST-tagged GAS41 YEATS (residues 1–148) (human) (UniProt O95619). Briefly: ITC. In general terms: ITC needs no label: the signal is the heat of the interaction.
Experiment [4] addresses GST-tagged GAS41 YEATS (residues 1–148) (human, UniProt O95619 1-148). Put plainly: ITC.
For experiment [5], the target named is full-length GAS41, Avi-tagged, mono-biotinylated (human, UniProt O95619 1-227, biotin (mono-biotinylated on the Avi tag by BirA)). Briefly: BLI.

Results on 9 molecules are retold here after paper PMC6611172 (ACS chemical biology, 2018).

Ends that are not written are not given here.

Chain of GAS41 YEATS domain (residues 13–158), His6-tagged, 15N-labeled (human) (O95619 13-158): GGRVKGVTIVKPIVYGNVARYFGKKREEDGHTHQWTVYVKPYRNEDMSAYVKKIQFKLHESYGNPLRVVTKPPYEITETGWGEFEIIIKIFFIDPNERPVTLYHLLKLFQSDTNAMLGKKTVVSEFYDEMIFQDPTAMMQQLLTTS
Chain of GST-tagged GAS41 YEATS (residues 1–148) (human) (O95619 1-148): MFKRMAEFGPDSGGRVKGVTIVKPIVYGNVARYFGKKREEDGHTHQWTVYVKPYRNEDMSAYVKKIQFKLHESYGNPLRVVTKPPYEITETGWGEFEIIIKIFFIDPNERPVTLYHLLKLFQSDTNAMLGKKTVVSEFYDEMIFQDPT
Chain of full-length GAS41, Avi-tagged, mono-biotinylated (human) (O95619 whole entry, the tested form may be a part): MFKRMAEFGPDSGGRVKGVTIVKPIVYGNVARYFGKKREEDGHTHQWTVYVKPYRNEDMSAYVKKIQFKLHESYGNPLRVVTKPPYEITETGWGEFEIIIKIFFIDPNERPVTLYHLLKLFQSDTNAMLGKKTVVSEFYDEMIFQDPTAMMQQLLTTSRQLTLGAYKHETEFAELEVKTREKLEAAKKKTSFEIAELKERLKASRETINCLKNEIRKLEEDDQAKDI
Chain of GST-tagged GAS41 YEATS (residues 1–148) (O95619 1-148): as the sequence (O95619 1-148) above
Chain of full-length GAS41, Avi-tagged, mono-biotinylated (O95619 whole entry): as the sequence (O95619 whole entry, the tested form may be a part) above

What is called Kd is the equilibrium constant for the complex coming apart. Read a high Kd as weaker binding. As for H3K14ac peptide, the Kd in experiment [1] turned out to be 720 µM.

Regarding H3K18ac peptide, the Kd in experiment [2] amounted to 36 µM; in experiment [1] it was 106 µM.

Regarding H3K23crK27cr peptide, in experiment [3], the Kd worked out at 11.1 µM and the stoichiometry N (peptide : YEATS domain) amounted to 0.5.

As for “H3 peptide with succinylated K27 (H3K27su)”, the equilibrium dissociation constant (Kd) in experiment [1] is more than 1000 µM.

Turning to tripeptide AKacA, the Kd in experiment [1] was 1000 µM.

H3K27ac peptide: the Kd in experiment [2] was 81 µM; in experiment [1], 58 µM; in experiment [3], 39 µM. Besides, the stoichiometry N (peptide : YEATS domain) in experiment [3] is 1.

For the molecule H3K27cr peptide, the dissociation constant Kd amounted to 34 µM in experiment [1] and 23.4 µM in experiment [3].

Take H3K18acK27ac peptide: the equilibrium dissociation constant (Kd) in experiment [2] is 3.2 µM. In experiment [3], this molecule showed a Kd of 12.5 µM and a stoichiometry N (peptide : YEATS domain) of 0.5.

For ATK(Ac)AARK(Ac)SAP [H3K23acK27ac peptide], the Kd in experiment [4] stood at 13.6 µM; in experiment [5], 5 µM.
